Positions count from the first letter of the chain named.

Assay [1] concerns the target T1, Hu P-cadherin-Fc (human, UniProt P22223 108-654, limits assumed).
T1 construct: also called recombinant human P-cadherin-Fc; human P-cadherin-Fc; not shown: Fc
Briefly: ELISA. Background: ELISA stands for enzyme-linked immunosorbent assay.

The target of assay [2] is T2, human P-cadherin expressed on the cell surface (human, UniProt P22223 108-829).
T2 construct: also called SW480-huPcad; CHO-huPcad
Briefly: cell ELISA, H1650 cells.

In assay [3] the target is T2, human P-cadherin expressed on the cell …. Put plainly: cell-based or functional assay.
The target in assay [4] is T3, cynomolgus monkey P-cadherin ECD (cynomolgus monkey).
T3 construct: extracellular domain; also called cyno P-cadherin ECD; Cyno P-cadherin
Briefly: SPR Biacore 3000, antigen immobilised. The procedure: (§1) Binding affinity of EK-DART proteins to P-cadherin and CD3 was analyzed by SPR using a BIACORE® 3000 biosensor (GE Healthcare). The antigens huCD3εδ and either human P-cadherin-Fc or human/cynomolgus monkey/murine P-cadherin-ECD were immobilized on the CM-5 sensor chip by amine coupling kit as recommended by the manufacturer. […] All EK-DART proteins in Tables 15 and 16 comprise CD3-2.
Background: SPR reads the build-up and loss of mass on a sensor chip optically.

Assay [5] addresses T3, cynomolgus monkey P-cadherin ECD. Put plainly: SPR.
Assay [6] shares this target. Put plainly: SPR Biacore. The procedure: as §1
All EK-DART proteins in Table 17 comprise CD3-2.

Assay [7] addresses T2, human P-cadherin expressed on the cell …. Put plainly: cell ELISA, H1650 cells. The source holds these as a separate data set.
The target is the same in assay [8]. Briefly: cell ELISA, CHO-huPcad cells.
Assay [9] deals with T4, huP-cad-ECD (human, UniProt P22223 108-654).
T4 construct: extracellular domain; also called recombinant human P-cadherin; human P-cadherin-ECD
T4 sequence (P22223 108-654): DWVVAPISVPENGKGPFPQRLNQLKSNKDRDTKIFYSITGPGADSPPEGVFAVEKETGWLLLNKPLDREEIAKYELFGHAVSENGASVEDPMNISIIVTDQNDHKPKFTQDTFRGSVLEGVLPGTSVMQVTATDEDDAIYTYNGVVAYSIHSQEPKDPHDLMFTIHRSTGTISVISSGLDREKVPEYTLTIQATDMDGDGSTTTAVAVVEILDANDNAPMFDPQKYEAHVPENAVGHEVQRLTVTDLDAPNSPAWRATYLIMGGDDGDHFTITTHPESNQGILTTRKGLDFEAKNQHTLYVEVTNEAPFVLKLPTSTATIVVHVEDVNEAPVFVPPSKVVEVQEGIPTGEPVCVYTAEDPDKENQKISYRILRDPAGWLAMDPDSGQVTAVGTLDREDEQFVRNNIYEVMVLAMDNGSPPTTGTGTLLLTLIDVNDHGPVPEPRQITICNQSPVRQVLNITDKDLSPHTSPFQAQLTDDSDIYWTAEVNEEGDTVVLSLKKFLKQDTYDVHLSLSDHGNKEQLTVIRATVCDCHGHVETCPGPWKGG
Put plainly: ELISA, recombinant protein.

In assay [10] the target is T5, huP-cad-ECD biotinylated (human, UniProt P22223 108-654, biotinylated (sites not given)).
T5 construct: extracellular domain
T5 sequence (P22223 108-654): as above
Briefly: ELISA, recombinant protein.

For assay [11], the target named is T6, muP-cad-ECD (murine, UniProt P10287 100-647).
T6 construct: extracellular domain; also called murine P-cadherin; murine P-cadherin ECD
T6 sequence (looked up): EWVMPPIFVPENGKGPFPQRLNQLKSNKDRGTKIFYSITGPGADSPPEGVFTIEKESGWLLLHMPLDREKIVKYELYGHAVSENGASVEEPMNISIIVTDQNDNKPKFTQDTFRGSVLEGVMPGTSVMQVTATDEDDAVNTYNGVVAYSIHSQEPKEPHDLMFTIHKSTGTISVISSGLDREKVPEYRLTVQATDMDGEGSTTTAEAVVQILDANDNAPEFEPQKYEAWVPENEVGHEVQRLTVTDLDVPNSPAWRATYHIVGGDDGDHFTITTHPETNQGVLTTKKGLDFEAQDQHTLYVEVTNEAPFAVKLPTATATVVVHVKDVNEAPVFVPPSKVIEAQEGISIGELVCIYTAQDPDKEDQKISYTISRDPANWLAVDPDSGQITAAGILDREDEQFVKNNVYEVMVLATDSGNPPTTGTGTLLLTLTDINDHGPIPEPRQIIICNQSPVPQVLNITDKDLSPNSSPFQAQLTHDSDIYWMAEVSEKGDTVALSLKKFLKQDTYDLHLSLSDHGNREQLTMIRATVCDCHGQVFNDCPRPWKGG
Put plainly: ELISA, recombinant protein.

In assay [12] the target is T2, human P-cadherin expressed on the cell …. Put plainly: cell ELISA, SW480-huPcad cells.
Assay [13] has the same target. Briefly: cell-based or functional assay. The source holds these as a separate data set.
The target in assay [14] is T3, cynomolgus monkey P-cadherin ECD. Put plainly: SPR Biacore affinity.

T2 sequence (P22223 108-829): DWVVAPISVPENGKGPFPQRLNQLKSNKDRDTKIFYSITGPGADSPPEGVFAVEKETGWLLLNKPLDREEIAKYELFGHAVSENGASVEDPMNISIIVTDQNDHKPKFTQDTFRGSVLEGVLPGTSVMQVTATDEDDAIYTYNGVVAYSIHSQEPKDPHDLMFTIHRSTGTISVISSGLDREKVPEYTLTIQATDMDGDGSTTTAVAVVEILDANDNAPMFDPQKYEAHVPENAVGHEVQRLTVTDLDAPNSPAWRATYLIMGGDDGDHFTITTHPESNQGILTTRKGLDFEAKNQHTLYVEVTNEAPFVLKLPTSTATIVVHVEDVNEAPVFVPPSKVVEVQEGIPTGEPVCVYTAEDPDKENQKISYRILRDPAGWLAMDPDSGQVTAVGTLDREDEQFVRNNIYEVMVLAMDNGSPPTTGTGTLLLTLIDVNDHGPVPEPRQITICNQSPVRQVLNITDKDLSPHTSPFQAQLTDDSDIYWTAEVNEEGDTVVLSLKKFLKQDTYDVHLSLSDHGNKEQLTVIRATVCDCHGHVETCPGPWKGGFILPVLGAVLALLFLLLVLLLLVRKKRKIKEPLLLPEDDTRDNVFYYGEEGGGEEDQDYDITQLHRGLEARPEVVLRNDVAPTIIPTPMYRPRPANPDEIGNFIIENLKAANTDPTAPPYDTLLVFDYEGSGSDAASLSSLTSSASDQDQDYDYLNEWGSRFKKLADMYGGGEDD
T1 sequence (P22223 108-654 limits assumed): as the sequence (P22223 108-654) above

B1: 35 EK-DART (bispecific antibody)
chain 1: QSVLTQPPSVSAAPGQKVTISCSGSSSNIGNNYVSWYQQLPGTAPKLLIYDNNKRPSGIPDRFSGSKSGTSATLGITGLQTGDEADYYCGTWDSSLSAVVFGGGTKLTVLGGGSGGGGEVQLVESGGGLVQPGGSLRLSCAASGFTFNTYAMNWVRQAPGKGLEWVARIRSKYNNYATYYADSVKDRFTISRDDSKNSLYLQMNSLKTEDTAVYYCVRHGNFGNSYVSWFAYWGQGTLVTVSSGGCGGGKVAALKEKVAALKEKVAALKEKVAALKE
chain 2: QAVVTQEPSLTVSPGGTVTLTCRSSTGAVTTSNYANWVQQKPGQAPRGLIGGTNKRAPWTPARFSGSLLGGKAALTITGAQAEDEADYYCALWYSNLWVFGGGTKLTVLGGGGSGGGGEVQLVQSGAEVKKPGASVKVSCKASGYTFTSYGISWVRQAPGQGLEWMGWISAYNGNTNYAQKLQGRVTMTTDTSTSTAYMELRSLRSDDTAVYYCATIDTASAFDIWGQGTMVTVSSGGCGGGEVAALEKEVAALEKEVAALEKEVAALEK
notes: also called P-CAD 35 EK-DART (CD3-2); parental 35 EK-DART
In general, EC50 refers to the concentration at which the effect is half-maximal. As a reminder, the Kd is a measure of binding affinity in units of concentration. For orientation: koff means the first-order rate constant of dissociation. As usually defined, the kon is the second-order rate constant of association. Consider B1, for which the EC50 came out at 1.92 nM in assay [1] and 24.9 nM in assay [2]. Besides, the “T cell Cytotoxicity” value in assay [3] is 0.33 nM. Further, the Kd in [4] was determined as 43.4 nM; in assay [5], 42.8 nM; in assay [6], 35 nM. For the same molecule, the koff was determined as 0.0138 s⁻¹ in assay [4] and 0.0215 s⁻¹ in assay [6]. Further, the association rate constant (kon) amounted to 318000 M⁻¹ s⁻¹ in assay [4] and 614000 M⁻¹ s⁻¹ in assay [6].

B2: 34 EK-DART (bispecific antibody)
chain 1: B1 chain 1 with L4V, V99W
chain 2: B1 chain 2
notes: also called P-CAD 34 EK-DART (CD3-2)
As for B2, the EC50 in assay [1] came out at 2.85 nM. The concentration giving a half-maximal response (EC50) in assay [2] was found to be 68 nM. In assay [4], this molecule showed a Kd of 129 nM, a koff of 0.0833 s⁻¹ and an association rate constant (kon) of 705000 M⁻¹ s⁻¹.

B3: 20 EK-DART (bispecific antibody)
chain 1: AIQMTQSPSSLSASVGDRVTITCRASQSIGKYLNWYQQIPGKAPKLLIYTASTLQTGVPSRFSGSGSGTDFTLTIVSLQPEDFATYYCQQSFNTPRTFGQGTKVEIKGGGSGGGGEVQLVESGGGLVQPGGSLRLSCAASGFTFNTYAMNWVRQAPGKGLEWVARIRSKYNNYATYYADSVKDRFTISRDDSKNSLYLQMNSLKTEDTAVYYCVRHGNFGNSYVSWFAYWGQGTLVTVSSGGCGGGKVAALKEKVAALKEKVAALKEKVAALKE
chain 2: QAVVTQEPSLTVSPGGTVTLTCRSSTGAVTTSNYANWVQQKPGQAPRGLIGGTNKRAPWTPARFSGSLLGGKAALTITGAQAEDEADYYCALWYSNLWVFGGGTKLTVLGGGGSGGGGEVQLVQSGAEVKKPGASVKVSCKASGYTFTGYYMHWVRQAPGQGLEWMGRINPNSGGTNYAQKFQGRVTMTRDTSISTAYMELSRLRSDDTAVYYCAKGSGSGAFDIWGQGTMVTVSSGGCGGGEVAALEKEVAALEKEVAALEKEVAALEK
notes: also called P-CAD 20 EK-DART (CD3-2)
In the case of B3, the EC50 in assay [1] came to 12.3 nM. The concentration for a half-maximal effect (EC50) in assay [2] was ~115 nM. For the same molecule, in assay [4], the equilibrium dissociation constant (Kd) is 2.03 nM, the koff was found to be 0.00704 s⁻¹ and the kon came to 3.46e+06 M⁻¹ s⁻¹.

B4: 35 scFv-Fc (Fc fusion)
VH: EVQLVQSGAEVKKPGASVKVSCKASGYTFTSYGISWVRQAPGQGLEWMGWISAYNGNTNYAQKLQGRVTMTTDTSTSTAYMELRSLRSDDTAVYYCATIDTASAFDIWGQGTMVTVSS
VL: QSVLTQPPSVSAAPGQKVTISCSGSSSNIGNNYVSWYQQLPGTAPKLLIYDNNKRPSGIPDRFSGSKSGTSATLGITGLQTGDEADYYCGTWDSSLSAVVFGGGTKLTVL
notes: also called P-CAD 35; P-cadherin clone 35 scFv-Fc
With B4, the EC50 in assay [7] amounted to 0.163 nM; in [8], 0.276 nM; in [9] it was 2.5 nM; in [10], 0.0176 nM; in assay [12], 0.173 nM. Also, the binding result in assay [11] was “no binding”.

B5: 33 scFv-Fc (Fc fusion)
VH: B4 VH with E1Q, V2M, T98L, D100G, T101S, A102G, S103V
VL: B4 VL with V99Y, G103T, L107V
notes: also called P-CAD 33; P-cadherin clone 33 scFv-Fc
As for B5, the EC50 turned out to be 0.567 nM in assay [7]; 0.493 nM in [8]; 3.46 nM in assay [9]; 0.101 nM in [10]; 0.424 nM in [12]. Moreover, the binding result in assay [11] is reported as “no binding”.

B6: 34 scFv-Fc (Fc fusion)
VH: B4 VH
VL: B4 VL with L4V, V99W
notes: also called P-CAD 34; P-cadherin clone 34 scFv-Fc
B6: the concentration giving a half-maximal response (EC50) in assay [7] was determined as 0.494 nM; in assay [8] it was 0.394 nM; in assay [9], 11.2 nM; in [10], 0.194 nM; in assay [12] it was 0.442 nM. The binding result in assay [11] is on record as “no binding”.

B7: 154 VF-DART (bispecific antibody, not shown: small tags and cut ends)
chain 1: QSVLTQPPSVSAAPGQKVTISCSGSSSNIGNNYVSWYQQLPGTAPKLLIYDNNKRPSGIPDRFSGSKSGTSATLGITGLQTGDEADYYCGTWDSSLSSYVFGTGTKVTVLGGGSGGGGEVQLVESGGGLVQPGGSLRLSCAASGFTFSTYAMNWVRQAPGKGLEWVGRIRSKYNNYATYYADSVKGRFTISRDDSKNSLYLQMNSLKTEDTAVYYCVRHGNFGNSYVSWFAYWGQGTLVTVSS
chain 2: QAVVTQEPSLTVSPGGTVTLTCRSSTGAVTTSNYANWVQQKPGQAPRGLIGGTNKRAPWTPARFSGSLLGGKAALTITGAQAEDEADYYCALWYSNLWVFGGGTKLTVLGGGGSGGGGEVQLVQSGAEVKKPGASVKVSCKASGYTFTSYGISWVRQAPGQGLEWMGWISAYNGNTNYAQKLQGRVTMTTDTSTSTAYMELRSLRSDDTAVYYCATIDTATAFDIWGQGTMVTVSS
Regarding B7, in assay [13], the “DU145 CTL (LDH) EC50” value worked out at 0.0024 nM and the “HCT116 CTL (Luc) EC50” value is 0.008 nM. The same molecule displayed a Kd in assay [14] of 2.85 nM.

B8: 30 EK-DART (bispecific antibody)
chain 1: DIVMTQSPLSLPVTLGQPASISCRSSQSLVHSDGNTYLHWFQQRPGQSPRRLIYKVSNRDSGVPDRFSGSGSGTDFTLKISRVEAEDVGVYYCMQGTHWPPLFGQGTKVEIKGGGSGGGGEVQLVESGGGLVQPGGSLRLSCAASGFTFNTYAMNWVRQAPGKGLEWVARIRSKYNNYATYYADSVKDRFTISRDDSKNSLYLQMNSLKTEDTAVYYCVRHGNFGNSYVSWFAYWGQGTLVTVSSGGCGGGKVAALKEKVAALKEKVAALKEKVAALKE
chain 2: QAVVTQEPSLTVSPGGTVTLTCRSSTGAVTTSNYANWVQQKPGQAPRGLIGGTNKRAPWTPARFSGSLLGGKAALTITGAQAEDEADYYCALWYSNLWVFGGGTKLTVLGGGGSGGGGEVQLVESGGGVVQPGRSLRLSCAASGFTFSSYGMHWVRQAPGKGLEWVAVISYDGSNKYYADSVKGRFTISRDNSKNTLYLQMNSLRAEDTAVYYCAKSSSDRTFDYWGQGTLVTVSSGGCGGGEVAALEKEVAALEKEVAALEKEVAALEK
notes: also called P-CAD 30 EK-DART (CD3-2)
B8 yielded an EC50 in [1] of 3.68 nM. In assay [2], this molecule showed an EC50 of 142 nM. Besides, in assay [4], the Kd stood at 1.37 nM, the koff turned out to be 0.00648 s⁻¹ and the on-rate constant (kon) is 4.72e+06 M⁻¹ s⁻¹.
